Like-named read-outs stand apart in the source and are kept apart here.
T1: GST-ABP9 (Zea mays, UniProt D2KNW6 1-385)
T1 sequence: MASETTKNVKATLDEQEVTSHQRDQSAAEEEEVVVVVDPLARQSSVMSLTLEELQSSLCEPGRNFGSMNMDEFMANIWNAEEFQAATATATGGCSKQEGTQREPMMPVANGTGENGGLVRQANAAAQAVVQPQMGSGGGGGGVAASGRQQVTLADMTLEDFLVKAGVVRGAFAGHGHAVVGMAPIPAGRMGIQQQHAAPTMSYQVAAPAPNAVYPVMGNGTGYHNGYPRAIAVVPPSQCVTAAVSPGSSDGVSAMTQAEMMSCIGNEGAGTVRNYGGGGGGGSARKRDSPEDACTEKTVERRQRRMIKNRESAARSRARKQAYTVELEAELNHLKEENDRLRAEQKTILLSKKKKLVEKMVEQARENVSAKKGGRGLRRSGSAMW


Key:
GST-ABP9 [1] = molecular target: T1, GST-ABP9; experiment: EMSA
GST-ABP9 [2] = molecular target: T1, GST-ABP9; experiment: EMSA; remark: listed apart in the source

| Binder | binding result (GST-ABP9 [1]) | binding result (GST-ABP9 [2]) |
| --- | --- | --- |
| ABRE2 (dsDNA) DNA 1: GAAGTCCACGTGGAGGTGG DNA 2: CCACCTCCACGTGGACTTC | binds | – |
| mABRE2 (dsDNA) DNA 1: GAAGTAACATGTTCGGTGG DNA 2: CCACCGAACATGTTACTTC | – | no binding |

Source: publication PMC3044229
